{"source": "paper doi:10.1101/298208", "about": "(bioRxiv, 2018)", "proteins": {"B1": {"name": "scavenger receptor class BI (SR-BI) (receptor)", "chain": "MGGSSRARWVALGLGALGLLFAALGVVMILMVPSLIKQQVLKNVRIDPSSLSFGMWKEIPVPFYLSVYFFEVVNPNEVLNGQKPVVRERGPYVYREFRQKVNITFNDNDTVSFVENRSLHFQPDKSHGSESDYIVLPNILVLGGSILMESKPVSLKLMMTLALVTMGQRAFMNRTVGEILWGYDDPFVHFLNTYLPDMLPIKGKFGLFVGMNNSNSGVFTVFTGVQNFSRIHLVDKWNGLSKIDYWHSEQCNMINGTSGQMWAPFMTPESSLEFFSPEACRSMKLTYNESRVFEGIPTYRFTAPDTLFANGSVYPPNEGFCPCRESGIQNVSTCRFGAPLFLSHPHFYNADPVLSEAVLGLNPNPKEHSLFLDIHPVTGIPMNCSVKMQLSLYIKSVKGIGQTGKIEPVVLPLLWFEQSGAMGGKPLSTFYTQLVLMPQVLHYAQYVLLGLGGLLLLVPIICQLRSQEKCFLFWSGSKKGSQDKEAIQAYSESLMSPAAKGTVLQEAKL"}}, "molecular_target": "the molecule itself", "experiment": "native gel or EMSA", "data": [{"protein": "B1", "values": [{"measurement": "stoichiometry N", "result": 2}]}]}
